# Variants at the floor of the assay were thinned out.
# B1: TPR 5TU (parent)
# chain: GGAUCUUCUCGAUCUAACAAAAAAGACAAAUCUGCCACAAAGCUUGAGAGCAUCUUCGGAUGCAGAGGCGGCAGCCUUCGGUGGCGCGAUAGCGCCAACGUUCUCAACUAUGACACGCAAAACGCGUGCUCCGUUGAAUGGAGUUUAUCAUG
# Variants of: B1
# Test: polymerase ribozyme fitness, log enrichment relative to wild type (log ratio); higher = more active; in vitro selection for triplet polymerase activity
# Outline: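 To select mutant libraries of each subunit of a heterodimeric triplet polymerase ribozyme, built by PCR and transcribed, each was annealed with a biotinylated primer, partner subunit and triplets, then incubated frozen at −7 °C. Extended constructs were gel-excised, captured on streptavidin beads and amplified by RT-PCR, in one round carried out in triplicate. Illumina sequencing of input and output libraries kept genotypes with ≥10 input reads and ≥1 read per output. Fitness is the base-2 logarithm of genotype enrichment relative to wild-type enrichment, from inverse-variance-weighted replicate averages.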
row,Variant,polymerase ribozyme fitness (log ratio)
1,A60G A73G G92U,0.661
2,G59A C116U,-0.293
3,A60C A73G C96U U101G,-3.45
4,A60G,0.0111
5,A60C,-0.597
6,G59C C87A U109A G133C,≤ -4.2
7,G59A G88U C116G,-3.56
8,G59A C87G G140C,≤ -4.2
9,G58U C85A C95G C96U,-3.24
10,G59A C85U,-1.79
11,A60G A89G,-0.778
12,G59U C69G G88C C125A,≤ -4.2
13,G59A C85G G126U,-2.21
14,G58C A91C C125G,≤ -4.2
15,G59A A147U,1.25
16,G59A G84U G92C C95G G124C,-2.69
17,G59C A60G C69U,-2.47
18,G58U C123U,0.837
19,G58U U135C,-1.62
20,G58C G86U C105A,-2.89
21,G58C C96G,-1.88
22,G59A C85U U134A,-3.92
23,G59C A89C C93U G117C A120G U135A,-3.35
24,G58C C72U U101G,0.371

row,Variant,polymerase ribozyme fitness (log ratio)
1,G59C C69A G133C,-1.75
2,G58C C87U A115G C116G A121U G136U,-4.12
3,G59A U90G C95G,≤ -4.2
4,G58C U139C,-3.3
5,G59U U90G A91G C95A G126C U146G,≤ -4.2
6,G59U C93U C114G,-3.92
7,G58C C96A A115U G128U,≤ -4.2
8,A60C U61C C76U A121G,≤ -4.2
9,G58U U82A C116U,0.803
10,G59A G92U C114A A119U,-3.59
11,A60C C85A C125G U144G,-2.67
12,G58C C69A,-2.62
13,A60G A107U,-3.1
14,G59C G94A U101G A113C,≤ -4.2
15,G58U G68A C95U,-4.01
16,G58U U61A U90A A142G,≤ -4.2
17,G59C C76A C87U A147C,-2.29
18,G59C G124A,-1.57
19,G59C G74A G80C U127G A142G,≤ -4.2
20,G58U G83A C85U,-0.262
21,G58C C96U A98G A121G,-0.614
22,G59A C123A,-0.0504
23,G59C G126U,0.134
24,G59C G126A,0.0741

row,Variant,polymerase ribozyme fitness (log ratio)
1,A60C G62C G83U G133A,≤ -4.2
2,G59C C96U U146A,0.268
3,G58C U82G C132A,-2.83
4,G58C U135G,-3.82
5,G58U C85G,-1.61
6,G58U G86C,-1.98
7,G59A G140C U144G,-3.79
8,G59C U78C G83A,-0.666
9,G59C G83A C87A A137U G140U,≤ -4.2
10,G58U U82A G84U U146G,-2.04
11,G59A C69A G86U A89C C95G,≤ -4.2
12,G58C A107C,-4.06
13,G59C A89U G92C A121G,-2.45
14,G59A C79U,-3.86
15,G59A U82C U134A,-2.59
16,G58U C87A U109C U148C,≤ -4.2
17,G59C C99G G141U,-1.13
18,G59U G88C C116G,-3.85
19,G58C G80A C95U U127G C149G,≤ -4.2
20,A60C C76U G88U C116G U135G A142G U148G,≤ -4.2
21,G58C G83U,-2.88
22,G58C U61G U146G,-3.76
23,G59C C95U A110G C116A,-3.2
24,G59U G94A A98G,-1.07

row,Variant,polymerase ribozyme fitness (log ratio)
1,G59U G124C U134G U146A,-3.17
2,G59C C95A C99G,≤ -4.2
3,G59U C96U A142G,-1.66
4,G59U A98G,0.162
5,G58U C96A G126C,0.641
6,G58U G141C,0.501
7,G58U G141A,1.05
8,G59U A91U G141A,≤ -4.2
9,G58U C72U C87U C99G G141C,≤ -4.2
10,A60C C93U C123A,-1.12
11,G59U G152C,-2.8
12,G58U C129G,-2.47
13,G58U C63G A142C,-1.41
14,A60C C87A A98U,≤ -4.2
15,G59U C99U U104G G128U U134A G136U A138G,≤ -4.2
16,G58C A60G C75U,0.32
17,G59C A106U,-0.917
18,G59C C79U,-3.43
19,G58C A98U,-0.459
20,G58C G83U C85G,-3.33
21,G58C G152A,-2.01
22,G59C C63U C87U A107U,-3.81
23,G59C A147C,-0.516
24,G59C A60C U77A C85A G140A U144C,≤ -4.2

row,Variant,polymerase ribozyme fitness (log ratio)
1,G58U C69A G83A,-1.52
2,G59U C75A C96G,≤ -4.2
3,A60C C63U U77C G128U A150G G152A,≤ -4.2
4,G59U U102G,-3.26
5,G59U A60C,-2.96
6,G59C A110G,-3.79
7,G59U A91U,-4.12
8,G59A G71A G117C,-3.56
9,G58C U61A C79A A91G G117A,≤ -4.2
10,G58C G59C C96U C131A,-4.15
11,G58U,-0.0298
12,G58C,0.0074
13,G59C G80A C93A,-3.86
14,G59U A97C C99G,-3.18
15,G58U U61G C63U G74C G141C,≤ -4.2
16,G58C A66G G140U,≤ -4.2
17,G59A C93A,-3.22
18,G59A C93U,-3.33
19,G59A C93G,-3.78
20,G59C A107U G143U,≤ -4.2
21,G59U A73G,-0.629
22,G58C G83C G117C C131U,-0.976
23,A60G A150G,-0.0266
24,G59C G92A,-2.89

row,Variant,polymerase ribozyme fitness (log ratio)
1,G58U G152U,-2.71
2,G59C U61G G84A C95G A120C G143U,-4.18
3,G59U C76U C105A A113U C116U,≤ -4.2
4,G59C A98U C125A G140C,≤ -4.2
5,G59C G81U G83A G124A G141U,0.692
6,G58U A142C,-0.408
7,G58C C72U A150U,0.398
8,G58C A97G A98U U145C,-0.616
9,A60C A97U,-1.64
10,G58U U78G C79U G80A C85U C96U A106G A147C,≤ -4.2
11,G58C C63U C95G,-2.14
12,G58U U82A G84U,-0.648
13,G58C G86C A89U,-3.91
14,G58C C85U A89G G136A,-3.96
15,G59C G88C A106U C108U,≤ -4.2
16,G59C C93U U102A A137G,-3.95
17,G59U U78G C79A C87U U109G A110U,-3.99
18,G59C G86U C95U,-2.13
19,G58C U78G C85G A106U A113G U144C,≤ -4.2
20,G58C A64G G65A G71A C95U U101G,≤ -4.2
21,A60G A73U C93U,-1.38
22,G59A G86U A119U G140U,-3.26
23,G59U A89U C95G,-2.27
24,G58C C87A U109C U130G,≤ -4.2

row,Variant,polymerase ribozyme fitness (log ratio)
1,G58C A66C C87G U139A,≤ -4.2
2,G59C G71A A115G,-4.09
3,G59U C69G,-1.07
4,G59A C99U A115G,-1.83
5,A60C G67C A73G G81A C114A G136C,≤ -4.2
6,A60C C105G,-3.44
7,G58C G62C C95G,-3.72
8,G59C G86C C96U A121U,-3.29
9,G59A G94C,-0.903
10,G58C C93U,-1.71
11,A60C C85A C116A,-1.6
12,G59A C76A C85A G117A A122C,-2.85
13,G59U C93A G133A A138U G141A,≤ -4.2
14,G59A,-0.0739
15,G59C,0.0972
16,G59U,-0.206
17,G58U G81A A122G,-0.315
18,A60C C79U U102A C103A A142G,≤ -4.2
19,A60C G81A C87A G133C G143A U148A,≤ -4.2
20,A60C G83U A121U,-2.35
21,G59A U78G A91U U102G,≤ -4.2
22,G59U C75U C76U C93G A115U,≤ -4.2
23,G59A U127C,-1.23

# Reference: the RNAGym collection of RNA variant scans (doi:10.1073/pnas.2313332121)
